# Molecular target: TafA (HAH_0240), mature major subunit of tat-fimbriae (tafi) of Haloarcula hispanica (Haloarcula hispanica)
# Assay: co-sedimentation
row,molar ratio in filament preparations (molecules per 100 molecules of TafA),Substance
1,1,"TafC (HAH_0242), minor component of tafi of Haloarcula hispanica (natural protein)"
2,5,"TafE (HAH_0239), minor component of tafi of Haloarcula hispanica (natural protein)"
